What was measured:
Assay in all cases: ELISA, lectin-captured E1E2 lysate, Ab 1 ug/ml
[1] = molecular target: E1E2 complex (H77) with E1 mutation R195A (HCV genotype 1a, isolate H77) (UniProt P27958)
[2] = molecular target: E1E2 complex (H77) with E1 mutation Q302A (HCV genotype 1a, isolate H77) (UniProt P27958)
[3] = molecular target: E1E2 complex (H77) with E1 mutation W239A (HCV genotype 1a, isolate H77) (UniProt P27958)
[4] = molecular target: E1E2 complex (H77) with E2 mutation N623A (HCV genotype 1a, isolate H77) (UniProt P27958)
[5] = molecular target: E1E2 complex (H77) with E1 mutation V246A (HCV genotype 1a, isolate H77) (UniProt P27958)
[6] = molecular target: E1E2 complex (H77) with E1 mutation M322A (HCV genotype 1a, isolate H77) (UniProt P27958)
[7] = molecular target: E1E2 complex (H77) with E1 mutation N234A (HCV genotype 1a, isolate H77) (UniProt P27958)
[8] = molecular target: E1E2 complex (H77) with E1 mutation G311A (HCV genotype 1a, isolate H77) (UniProt P27958)
[9] = molecular target: E1E2 complex (H77) with E1 mutation S307A (HCV genotype 1a, isolate H77) (UniProt P27958)
[10] = molecular target: E1E2 complex (H77) with E1 mutation M324A (HCV genotype 1a, isolate H77) (UniProt P27958)
[11] = molecular target: E1E2 complex (H77) with E1 mutation N196A (HCV genotype 1a, isolate H77) (UniProt P27958)
[12] = molecular target: E1E2 complex (H77) with E1 mutation A319G (HCV genotype 1a, isolate H77) (UniProt P27958)
[13] = molecular target: E1E2 complex (H77) with E1 mutation Y276A (HCV genotype 1a, isolate H77) (UniProt P27958)
[14] = molecular target: E1E2 complex (H77) with E1 mutation H316A (HCV genotype 1a, isolate H77) (UniProt P27958)
[15] = molecular target: E1E2 complex (H77) with E1 mutation Y201A (HCV genotype 1a, isolate H77) (UniProt P27958)
[16] = molecular target: E1E2 complex (H77) with E1 mutation S198A (HCV genotype 1a, isolate H77) (UniProt P27958)
[17] = molecular target: E1E2 complex (H77) with E2 mutation T621A (HCV genotype 1a, isolate H77) (UniProt P27958)
[18] = molecular target: E1E2 complex (H77) with E2 mutation T425A (HCV genotype 1a, isolate H77) (UniProt P27958)
[19] = molecular target: E1E2 complex (H77) with E1 mutation T255A (HCV genotype 1a, isolate H77) (UniProt P27958)
[20] = molecular target: E1E2 complex (H77) with E1 mutation P228A (HCV genotype 1a, isolate H77) (UniProt P27958)
[21] = molecular target: E1E2 complex (H77) with E1 mutation Y309A (HCV genotype 1a, isolate H77) (UniProt P27958)
[22] = molecular target: E1E2 complex (H77) with E1 mutation T314A (HCV genotype 1a, isolate H77) (UniProt P27958)
[23] = molecular target: E1E2 complex (H77) with E1 mutation N305A/N325A (HCV genotype 1a, isolate H77) (UniProt P27958)
[24] = molecular target: E1E2 complex (H77) with E1 mutation N305A (HCV genotype 1a, isolate H77) (UniProt P27958)
[25] = molecular target: E1E2 complex (H77) with E1 mutation G350A (HCV genotype 1a, isolate H77) (UniProt P27958)
[26] = molecular target: E1E2 complex (H77) with E1 mutation F293A (HCV genotype 1a, isolate H77) (UniProt P27958)
[27] = molecular target: E1E2 complex (H77) with E1 mutation M323A (HCV genotype 1a, isolate H77) (UniProt P27958)
[28] = molecular target: E1E2 complex (H77) with E1 mutation P295A (HCV genotype 1a, isolate H77) (UniProt P27958)
[29] = molecular target: E1E2 complex (H77) with E1 mutation V227A (HCV genotype 1a, isolate H77) (UniProt P27958)

## mouse anti-E1 MAb A4 (antibody)
[1]
  Binding relative to wt (%): 197%
[2]
  Binding relative to wt (%): 215%
[3]
  Binding relative to wt (%): 103%
[4]
  Binding relative to wt (%): 116%
[5]
  Binding relative to wt (%): 96%
[6]
  Binding relative to wt (%): 115%
[7]
  Binding relative to wt (%): 105%
[8]
  Binding relative to wt (%): 89%
[9]
  Binding relative to wt (%): 157%
[10]
  Binding relative to wt (%): 80%
[11]
  Binding relative to wt (%): 45%
[12]
  Binding relative to wt (%): 101%
[13]
  Binding relative to wt (%): 82%
[14]
  Binding relative to wt (%): 95%
[15]
  Binding relative to wt (%): 5%
[16]
  Binding relative to wt (%): 61%
[17]
  Binding relative to wt (%): 114%
[18]
  Binding relative to wt (%): 104%
[19]
  Binding relative to wt (%): 106%
[20]
  Binding relative to wt (%): 171%
[21]
  Binding relative to wt (%): 78%
[22]
  Binding relative to wt (%): 99%
[23]
  Binding relative to wt (%): 114%
[24]
  Binding relative to wt (%): 123%
[25]
  Binding relative to wt (%): 79%
[26]
  Binding relative to wt (%): 87%
[27]
  Binding relative to wt (%): 69%
[28]
  Binding relative to wt (%): 132%
[29]
  Binding relative to wt (%): 150%
